These are literature values, as cited in publication PMC4340714.

Broadly, the Kd is the equilibrium constant for the complex coming apart.

The data set addresses Mst2 kinase domain (Homo sapiens) (UniProt Q13188).
Sequence of UniProt Q13188 (Q13188 27-278): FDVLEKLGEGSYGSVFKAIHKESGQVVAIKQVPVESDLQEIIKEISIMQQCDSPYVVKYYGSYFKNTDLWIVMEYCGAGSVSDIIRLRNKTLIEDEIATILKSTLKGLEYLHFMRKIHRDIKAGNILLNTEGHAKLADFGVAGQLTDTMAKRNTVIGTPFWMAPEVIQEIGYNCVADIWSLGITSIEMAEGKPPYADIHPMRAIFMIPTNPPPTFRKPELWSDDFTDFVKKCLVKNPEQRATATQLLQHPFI

Consider “Mst1 kinase domain (from UniProt Q13043)”, for which the Kd was 36 µM.
